Experimental data published in patent publication US20220403043A1 (YEDA RESEARCH AND DEVELOPMENT, published 2022).

T1: recombinant mouse CD11c (R&D Systems) (mouse, UniProt Q9QXH4 20-1116)
T1 construct: extracellular domain; Bought protein; also called recombinant CD11c
T1 sequence (looked up): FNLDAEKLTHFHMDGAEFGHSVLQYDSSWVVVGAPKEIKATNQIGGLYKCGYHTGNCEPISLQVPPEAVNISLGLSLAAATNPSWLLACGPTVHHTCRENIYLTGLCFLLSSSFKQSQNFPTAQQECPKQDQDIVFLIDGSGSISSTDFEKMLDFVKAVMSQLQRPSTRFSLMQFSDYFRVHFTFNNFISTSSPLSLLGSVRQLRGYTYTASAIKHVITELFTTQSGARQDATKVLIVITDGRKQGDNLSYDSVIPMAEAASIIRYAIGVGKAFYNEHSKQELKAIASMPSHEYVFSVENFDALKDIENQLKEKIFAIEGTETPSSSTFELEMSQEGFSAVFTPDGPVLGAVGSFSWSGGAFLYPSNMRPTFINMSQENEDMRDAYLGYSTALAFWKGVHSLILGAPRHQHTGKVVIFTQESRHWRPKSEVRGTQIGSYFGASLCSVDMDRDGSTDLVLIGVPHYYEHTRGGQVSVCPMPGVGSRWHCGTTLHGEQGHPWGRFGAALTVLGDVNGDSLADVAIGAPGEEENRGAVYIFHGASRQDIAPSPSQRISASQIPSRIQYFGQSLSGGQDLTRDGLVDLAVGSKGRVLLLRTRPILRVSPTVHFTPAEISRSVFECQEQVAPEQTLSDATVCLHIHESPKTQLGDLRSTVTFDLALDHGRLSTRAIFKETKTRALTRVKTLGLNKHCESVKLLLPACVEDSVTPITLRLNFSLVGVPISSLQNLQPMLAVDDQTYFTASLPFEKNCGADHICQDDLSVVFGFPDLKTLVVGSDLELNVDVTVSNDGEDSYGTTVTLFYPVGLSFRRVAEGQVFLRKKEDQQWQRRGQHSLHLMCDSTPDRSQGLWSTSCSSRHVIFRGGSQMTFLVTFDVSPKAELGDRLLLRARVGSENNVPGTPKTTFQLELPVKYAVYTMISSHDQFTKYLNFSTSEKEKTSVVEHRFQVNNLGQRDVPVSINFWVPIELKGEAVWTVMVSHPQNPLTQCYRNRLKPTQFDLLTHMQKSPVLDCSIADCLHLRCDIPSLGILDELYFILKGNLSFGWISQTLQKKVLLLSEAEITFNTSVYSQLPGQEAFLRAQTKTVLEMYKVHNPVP

T2: recombinant hFcγRIIB (human, UniProt P31994 43-217, limits assumed)
T2 construct: construct not described; also called human FcγRIIB
T2 sequence (looked up): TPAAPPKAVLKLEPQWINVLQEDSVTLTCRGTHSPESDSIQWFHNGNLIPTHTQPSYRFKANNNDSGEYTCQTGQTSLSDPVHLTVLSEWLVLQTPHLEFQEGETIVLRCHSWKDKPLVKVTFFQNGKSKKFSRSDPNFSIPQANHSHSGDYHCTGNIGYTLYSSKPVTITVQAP


What was measured:
[1] = target: T1, recombinant mouse CD11c (R&D Systems); experiment: ELISA titration on coated recombinant mouse CD11c (FIG. 4B)
Procedure: (§1) All sequential steps were performed at room temperature. After being washed, the plates were blocked for 1 hr with 1×PBS with 2% Bovine serum Albumin and were subsequently incubated for 1 hr with serially diluted IgGs (1:5 consecutive dilutions in 1×PBS with 2% Bovine serum Albumin). For dual binding ELISA assay, plates were incubated for 1 hr with biotinylated human CD40 (Acrobiosystems). After washing, plates were incubated for 1 hr with horseradish peroxidase-conjugated anti-human IgG (Jackson ImmunoResearch) or with horseradish peroxidase-conjugated Streptavidin (Biolegend). Detection was performed using a one component substrate solution (TMB) and reactions stopped with the addition of 0.18 M sulphuric acid. Absorbance at 450 nm was immediately recorded using a SpectraMax Plus spectrophotometer (Molecular Devices), and background absorbance from negative control samples was subtracted.

[2] = target: T3, recombinant human DEC-205 (Sino Biological), extracellular domain (human, UniProt O60449 28-1666); experiment: ELISA titration on coated recombinant human DEC-205 (FIG. 4B)
T3 construct: extracellular domain; Bought protein
Procedure: as §1

[3] = target: T4, biotinylated human CD40 (Acrobiosystems) (human, UniProt P25942 21-193, biotinylated (site not stated)); experiment: simultaneous binding ELISA (FIG. 4A-D)
T4 construct: also called huCD40
Procedure: as §1

[4] = target: T3, recombinant human DEC-205 (Sino …); experiment: simultaneous binding ELISA (FIG. 4A-D)
Procedure: as §1

[5] = target: T5, recombinant human CD40 (Sino Biological), extracellular domain (human, UniProt P25942 21-193); experiment: ELISA titration on coated recombinant huCD40 (FIG. 4A)
T5 construct: also called huCD40; hCD40
Procedure: as §1

recombinant hFcγRIIB = target: T2, recombinant hFcγRIIB; experiment: ELISA on recombinant hFcγRIIB (FIG. 9B)

T3 sequence (O60449 28-1666): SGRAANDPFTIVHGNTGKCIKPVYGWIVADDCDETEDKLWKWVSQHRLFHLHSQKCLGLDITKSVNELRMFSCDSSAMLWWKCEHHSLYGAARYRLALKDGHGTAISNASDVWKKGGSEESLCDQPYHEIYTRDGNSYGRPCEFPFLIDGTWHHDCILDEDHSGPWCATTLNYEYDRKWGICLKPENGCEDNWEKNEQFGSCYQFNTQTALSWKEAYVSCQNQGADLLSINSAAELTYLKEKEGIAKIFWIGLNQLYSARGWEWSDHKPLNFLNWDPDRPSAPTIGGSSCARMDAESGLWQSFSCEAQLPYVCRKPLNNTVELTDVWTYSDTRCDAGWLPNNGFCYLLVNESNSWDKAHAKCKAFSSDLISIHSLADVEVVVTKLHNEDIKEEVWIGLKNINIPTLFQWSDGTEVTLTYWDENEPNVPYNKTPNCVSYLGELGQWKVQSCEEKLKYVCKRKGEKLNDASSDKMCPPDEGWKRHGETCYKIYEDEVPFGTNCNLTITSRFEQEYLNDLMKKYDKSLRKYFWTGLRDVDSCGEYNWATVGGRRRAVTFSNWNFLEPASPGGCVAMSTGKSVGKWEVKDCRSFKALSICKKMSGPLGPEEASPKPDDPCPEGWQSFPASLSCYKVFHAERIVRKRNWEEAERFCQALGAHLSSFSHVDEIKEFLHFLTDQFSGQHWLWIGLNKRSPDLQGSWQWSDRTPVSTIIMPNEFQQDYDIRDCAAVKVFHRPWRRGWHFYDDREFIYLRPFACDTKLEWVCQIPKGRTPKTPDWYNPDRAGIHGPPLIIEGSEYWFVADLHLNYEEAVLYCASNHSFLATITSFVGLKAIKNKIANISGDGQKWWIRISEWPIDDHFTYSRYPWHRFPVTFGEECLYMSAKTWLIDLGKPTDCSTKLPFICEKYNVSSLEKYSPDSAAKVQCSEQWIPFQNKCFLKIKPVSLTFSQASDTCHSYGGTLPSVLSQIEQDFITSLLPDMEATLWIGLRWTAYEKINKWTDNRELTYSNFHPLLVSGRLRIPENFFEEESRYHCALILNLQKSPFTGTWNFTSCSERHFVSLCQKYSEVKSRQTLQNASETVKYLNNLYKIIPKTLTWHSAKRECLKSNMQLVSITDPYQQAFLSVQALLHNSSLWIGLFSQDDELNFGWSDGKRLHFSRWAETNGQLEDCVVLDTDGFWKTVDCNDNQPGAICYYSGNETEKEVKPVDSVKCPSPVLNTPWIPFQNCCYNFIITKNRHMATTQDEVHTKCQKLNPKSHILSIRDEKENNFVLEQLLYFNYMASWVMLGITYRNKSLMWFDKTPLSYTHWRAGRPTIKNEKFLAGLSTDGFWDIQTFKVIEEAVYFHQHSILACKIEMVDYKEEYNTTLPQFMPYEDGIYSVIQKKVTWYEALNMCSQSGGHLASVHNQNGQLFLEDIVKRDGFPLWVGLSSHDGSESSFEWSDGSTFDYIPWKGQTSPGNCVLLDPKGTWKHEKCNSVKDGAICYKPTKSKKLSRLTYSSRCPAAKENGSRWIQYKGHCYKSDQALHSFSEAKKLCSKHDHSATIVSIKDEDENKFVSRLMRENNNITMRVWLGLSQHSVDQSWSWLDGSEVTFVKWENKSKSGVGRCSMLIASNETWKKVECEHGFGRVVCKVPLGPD
T4 sequence (P25942 21-193 limits assumed): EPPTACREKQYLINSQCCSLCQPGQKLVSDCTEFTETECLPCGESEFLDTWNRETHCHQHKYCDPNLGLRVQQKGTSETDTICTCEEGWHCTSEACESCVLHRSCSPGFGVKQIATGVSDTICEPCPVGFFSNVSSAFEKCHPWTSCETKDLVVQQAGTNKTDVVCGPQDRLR
T5 sequence (P25942 21-193 limits assumed): as above

Binder | binding result [2] | binding result (recombinant hFcγRIIB) | further results
anti-CD40/DEC-205 bispecific Ab (2141/HD-109) (bispecific antibody, Whole human IgG1 bispecific of four chains; Knobs-into-holes: Y349C/T366S/L368A/Y407V on the anti-DC arm and S354C/T366W on the anti-CD40 arm; One arm is in CrossMab CH1-CL format) VH 1: not shown VL 1: DIQMTQSPSSVSASVGDRVTITCRASQGIYSWLAWYQQKPGKAPNLLIYTASTLQSGVPSRFSGSGSGTDFTLTISSLQPEDFATYYCQQANIFPLTFGGGTKVEIKRTVAAPSVFIFPPSDEQLKSGTASVVCLLNNFYPREAKVQWKVDNALQSGNSQESVTEQDSKDSTYSLSSTLTLSKADYEKHKVYACEVTHQGLSSPVTKSFNRGEC VH 2: QVQLTESGPGLVAPSQSLSITCSVSGFSLTNYAINWVRQPPGKGLEWLGIIWTGGGTNYNSTLKSRLSISKDNSKSQVFLKMNSLQTDDTARYYCARVSHDYFYGSSPYYYGMDYWGQGTSVTVSS VL 2: DIQMNQSPSSLSASLGDTITITCHASQNINVWLSWYQQKPGNIPKLLIYKVSNLHTGVPSRFSGSGSGTGFTLTISSLQPEDIATYYCQQGQSYPWTFGGGTKLEIK | – | – | binding result [3]: binds; binding result [4]: binds; binding result [5]: binds
CD40/CD11c-V11 (bispecific antibody, human IgG1, Human IgG1 Fc with V11 (G237D/P238D/H268D/P271G/A330R); also called anti-CD40/CD11c bsAb hIgG1-V11; IgG1-V11; copies: 1 + 1 + 1 + 1) heavy 1: not shown light 1: DIQMTQSPSSVSASVGDRVTITCRASQGIYSWLAWYQQKPGKAPNLLIYTASTLQSGVPSRFSGSGSGTDFTLTISSLQPEDFATYYCQQANIFPLTFGGGTKVEIKRTVAAPSVFIFPPSDEQLKSGTASVVCLLNNFYPREAKVQWKVDNALQSGNSQESVTEQDSKDSTYSLSSTLTLSKADYEKHKVYACEVTHQGLSSPVTKSFNRGEC heavy 2: EVQLVEKGGGLVQPGKSLKLSCAASGFTFSEYWMNWVRQAPGKGLEWVGVIKYKYSNYATEYAESVKGRFTISRDDSKSSVYLQMNNLRAEDTAIYYCARTWENWYFDFWGQGTQVTVSSASVAAPSVFIFPPSDEQLKSGTASVVCLLNNFYPREAKVQWKVDNALQSGNSQESVTEQDSKDSTYSLSSTLTLSKADYEKHKVYACEVTHQGLSSPVTKSFNRGECDRSEPKSCDKTHTCPPCPAPELLGDDSVFLFPPKPKDTLMISRTPEVTCVVVDVSDEDGEVKFNWYVDGVEVHNAKTKPREEQYNSTYRVVSVLTVLHQDWLNGKEYKCKVSNKALPRPIEKTISKAKGQPREPQVCTLPPSREEMTKNQVSLSCAVKGFYPSDIAVEWESNGQPENNYKTTPPVLDSDGSFFLVSKLTVDKSRWQQGNVFSCSVMHEALHNHYTQKSLSLSPGKSAWSHPQFEK light 2: DIQMTQSPSSLPASLGDRVTIHCQASQDISNYLTWYQQKPGKAPKLLIYETNKLADGVPSRFSGSGSGRDYSFTISSLESEDVGSYYCQHYYDYPRTFGPGTKLDLKSSASTKGPSVFPLAPSSKSTSGGTAALGCLVKDYFPEPVTVSWNSGALTSGVHTFPAVLQSSGLYSLSSVVTVPSSSLGTQTYICNVNHKPSNTKVDKKVEPKSC | – | binds | –
anti-DEC-205 (HD109) monospecific Ab (antibody, V domains shown) VH: QVQLTESGPGLVAPSQSLSITCSVSGFSLTNYAINWVRQPPGKGLEWLGIIWTGGGTNYNSTLKSRLSISKDNSKSQVFLKMNSLQTDDTARYYCARVSHDYFYGSSPYYYGMDYWGQGTSVTVSS VL: DIQMNQSPSSLSASLGDTITITCHASQNINVWLSWYQQKPGNIPKLLIYKVSNLHTGVPSRFSGSGSGTGFTLTISSLQPEDIATYYCQQGQSYPWTFGGGTKLEIK | binds | – | –

Now from value to binder, other results behind:

binding result [2] | binding result (recombinant hFcγRIIB) | Binder | further results
no binding | – | anti-CD40 (2141) monospecific Ab (antibody, V domains shown, 2141 variable regions cloned on human IgG1 / human kappa backbones; also called clone 21.4.1; CD40 mAb) VH: not shown VL: DIQMTQSPSSVSASVGDRVTITCRASQGIYSWLAWYQQKPGKAPNLLIYTASTLQSGVPSRFSGSGSGTDFTLTISSLQPEDFATYYCQQANIFPLTFGGGTKVEIKR | binding result [1]: no binding
– | binds | CD40/DEC-205-V11 (bispecific antibody, human IgG1, Human IgG1 Fc with V11 (G237D/P238D/H268D/P271G/A330R); also called IgG1-V11; copies: 1 + 1 + 1 + 1) heavy 1: not shown light 1: DIQMTQSPSSVSASVGDRVTITCRASQGIYSWLAWYQQKPGKAPNLLIYTASTLQSGVPSRFSGSGSGTDFTLTISSLQPEDFATYYCQQANIFPLTFGGGTKVEIKRTVAAPSVFIFPPSDEQLKSGTASVVCLLNNFYPREAKVQWKVDNALQSGNSQESVTEQDSKDSTYSLSSTLTLSKADYEKHKVYACEVTHQGLSSPVTKSFNRGEC heavy 2: QVQLTESGPGLVAPSQSLSITCSVSGFSLTNYAINWVRQPPGKGLEWLGIIWTGGGTNYNSTLKSRLSISKDNSKSQVFLKMNSLQTDDTARYYCARVSHDYFYGSSPYYYGMDYWGQGTSVTVSSASVAAPSVFIFPPSDEQLKSGTASVVCLLNNFYPREAKVQWKVDNALQSGNSQESVTEQDSKDSTYSLSSTLTLSKADYEKHKVYACEVTHQGLSSPVTKSFNRGECDRSEPKSCDKTHTCPPCPAPELLGDDSVFLFPPKPKDTLMISRTPEVTCVVVDVSDEDGEVKFNWYVDGVEVHNAKTKPREEQYNSTYRVVSVLTVLHQDWLNGKEYKCKVSNKALPRPIEKTISKAKGQPREPQVCTLPPSREEMTKNQVSLSCAVKGFYPSDIAVEWESNGQPENNYKTTPPVLDSDGSFFLVSKLTVDKSRWQQGNVFSCSVMHEALHNHYTQKSLSLSPGKSAWSHPQFEK light 2: DIQMNQSPSSLSASLGDTITITCHASQNINVWLSWYQQKPGNIPKLLIYKVSNLHTGVPSRFSGSGSGTGFTLTISSLQPEDIATYYCQQGQSYPWTFGGGTKLEIKSSASTKGPSVFPLAPSSKSTSGGTAALGCLVKDYFPEPVTVSWNSGALTSGVHTFPAVLQSSGLYSLSSVVTVPSSSLGTQTYICNVNHKPSNTKVDKKVEPKSC | –
